Values belong to the molecule of their own block, whether it stands above or below them.
Experiments:
[1] = target: Protein A (positive assay control transfected into cells) (UniProt P38507); assay: validation titration, flow cytometry on transfected HEK-293T cells
[2] = target: FCGR1A (FCGR protein) of the membrane proteome array (human) (UniProt P12314); assay: as above
[3] = target: T1, Human CD19, wild-type full-length protein expressed on cells (human, UniProt P15391 20-556); assay: scFv clone screen on NALM6 cells with and without CD19
T1 construct: also called WT CD19; CD19 wild type protein
T1 sequence: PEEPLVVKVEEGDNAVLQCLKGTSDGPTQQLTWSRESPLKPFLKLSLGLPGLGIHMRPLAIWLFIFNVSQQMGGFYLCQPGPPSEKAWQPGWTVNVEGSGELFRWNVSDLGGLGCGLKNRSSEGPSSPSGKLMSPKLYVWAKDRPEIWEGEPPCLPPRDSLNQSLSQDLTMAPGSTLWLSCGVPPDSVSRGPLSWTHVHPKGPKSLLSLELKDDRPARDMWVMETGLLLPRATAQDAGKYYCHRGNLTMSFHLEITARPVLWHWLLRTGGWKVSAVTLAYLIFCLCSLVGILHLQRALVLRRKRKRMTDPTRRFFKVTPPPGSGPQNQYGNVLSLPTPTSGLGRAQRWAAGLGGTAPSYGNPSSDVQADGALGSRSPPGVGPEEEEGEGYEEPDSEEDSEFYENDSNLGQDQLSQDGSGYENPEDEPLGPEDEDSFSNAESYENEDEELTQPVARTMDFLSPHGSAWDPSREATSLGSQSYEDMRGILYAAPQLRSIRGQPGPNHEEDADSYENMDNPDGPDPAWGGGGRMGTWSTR
Text: To ensure that the up to (30) clones could recognize native CD19 expressed on tumor cells, the clones (scFv) were also screened against NALM6 tumor cell line positive (+) CD19 expression (NALM6 cell line⁺ CD19). CD19 knockout Nalm6 cell line (NALM6 cell line⁻ CD1; or CD19KO Nalm6 cell line) were used as a negative control for the selection. CD19KO Nalm6 cell lines used for the screen were engineered CRISPR knocked-out (KO) Nalm6-CD19KO cells. Clones that bound CD19⁺ NALM6 tumor cells, but not CD19-NALM6 tumor cells (CD19KO) were selected (Step 4).

[4] = target: T2, FITC-Labeled human CD19 protein (ACROBiosystem, Cat-CD9-HF251) (human, UniProt P15391 20-291, FITC label); assay: flow cytometry, premixed CD19-FITC protein and anti-CD19 PE (FMC63 clone) 1:1; FITC gate; competitor anti-CD19 PE (untransduced 0.21)
T2 construct: The text calls the same reagent CD19-FITC and CD19-GFP; also called CD19-FITC protein; CD19-FTC protein
T2 sequence (looked up): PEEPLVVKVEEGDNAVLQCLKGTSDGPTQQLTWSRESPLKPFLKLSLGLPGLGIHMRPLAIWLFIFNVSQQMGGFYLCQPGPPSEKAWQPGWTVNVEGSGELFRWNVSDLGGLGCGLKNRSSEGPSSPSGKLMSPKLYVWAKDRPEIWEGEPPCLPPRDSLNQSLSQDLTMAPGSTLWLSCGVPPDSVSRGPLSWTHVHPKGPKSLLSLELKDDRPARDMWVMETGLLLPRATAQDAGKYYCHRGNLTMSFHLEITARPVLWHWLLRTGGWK
Experimental: (§1) In the second set of assays, CAR T cells were co-incubated with the CD19-FTC protein and the anti-CD19 PE (FMC63 clones) at 1:1 or 1:3 ratio for 15 minutes. The CAR T cells were then stained and incubated for 20 minutes before imaging by flow cytometry. […] The CAR T cells were gated for anti-CD19 PE (anti-FMC63 antibody; idiotype antibody binding) and the CD19 binder CAR binder FITC (CD19-GFP detection).

[5] = target: T2, FITC-Labeled human CD19 protein …; assay: flow cytometry, premixed CD19-FITC protein and anti-CD19 PE (FMC63 clone) 1:3; FITC gate; competitor anti-CD19 PE (untransduced 0.21)
Experimental: as §1

[6] = target: T1, Human CD19, wild-type full-length …; assay: cell-based or functional assay
[7] = target: T2, FITC-Labeled human CD19 protein …; assay: flow cytometry, CD19-FITC protein added after anti-FMC63 Ab PE; FITC gate; competitor anti-FMC63 Ab (untransduced 0.86)
Experimental: To determine whether the anti-FMC63 antibody and the CD19 binders could bind the same region on the CD19 protein, competitive assays were performed. In the first set of experiments, the CD19 CAR T cells were first incubated with 1 ul of anti-FMC63 antibody PE for 20 minutes. After the incubation period, 2 ul of the CD19-FITC protein was added to the CAR T cells, which were further incubated for another 20 minutes. The CAR T cells were washed and assessed by Flow cytometry. The CAR T cells were gated for anti-FMC63 antibody (idiotype antibody binding) and the CD19 CAR binders (CD19-GFP detection).

[8] = target: T2, FITC-Labeled human CD19 protein …; assay: flow cytometry, ND539 CAR T cells day 9, CD19-FITC protein only (untransduced 0.85)
Experimental: At day 9 (D9) post-transduction, frozen ND539 CAR T cells were incubated with a fluorescently labeled recombinant CD19 protein. The CD19 CAR T cells were then analyzed by flow cytometry to determine the binding of the recombinant molecules to the CD19 CAR T cells. ND539 CAR T cells expressing a CAR comprising a FMC63 binder were used as control. Flow was gated for CD19 binder CAR.

Chain of FCGR1A (FCGR protein) of the membrane proteome array (human) (P12314 16-374): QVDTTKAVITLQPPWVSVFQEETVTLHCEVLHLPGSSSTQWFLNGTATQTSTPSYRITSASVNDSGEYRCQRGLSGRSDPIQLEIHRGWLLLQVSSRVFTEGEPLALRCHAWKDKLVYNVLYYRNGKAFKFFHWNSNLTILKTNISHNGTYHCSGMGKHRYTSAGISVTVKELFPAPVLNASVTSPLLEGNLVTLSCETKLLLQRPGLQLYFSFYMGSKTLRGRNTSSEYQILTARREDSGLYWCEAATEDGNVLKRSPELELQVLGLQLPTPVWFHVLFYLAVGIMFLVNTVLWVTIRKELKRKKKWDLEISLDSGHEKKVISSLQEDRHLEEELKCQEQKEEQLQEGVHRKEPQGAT

MFI signal, fold above negative control [1]: > 190 fold
MFI signal, fold above negative control [2]: > 45 fold
Molecule: isotype control article (Example 13)

binding result [3]: binds
B5: CD19 16 scFv (P10) (scFv)
scFv: QSVLTQPPSVSGAPGQRVTISCTGSSSNIGAGYDVHWYQQLPGTAPKLLIYGNNNRPSGVPDRFSGSKSGTSASLAITGLQAEDEADYYCQSYDVSLGVWVFGGGTKLTVLGGGGSGGGGSGGGGSQLQLQESGPGLVKPSETLSLTCTVSGGSISSPSYYWGWIRQPPGKGLEWIGSIYYTGATYYNPSLKSRVTISVDTSKNQFSLKLSSVTAADTAVYYCARYGPAGVGFDYWGQGTLVTVSS
notes: also called 51; clone 51

binding result [3]: binds
B6: CD19 15 scFv (P9) (scFv)
scFv: DIQMTQSPSSLSASVGDRVTITCRASQPIRPYLNWYQQKPGKAPKLLIYDASSLQSGVPSRFSGSGSGTDFTLTISSLQPEDFATYYCQQSYSAPYTFGQGTKVEIKGGGGSGGGGSGGGGSEVQLLESGGGLVQPGGSLRLSCAASGFTFSSYAMSWVRQAPGKGLEWVSVISGGGANTYYADSVKGRFTISRDNSKNTLYLQMNSLRAEDTAVYYCARDWRYFDHWGQGTLVTVSS
notes: also called 50; clone 50

binding result [3]: binds
B7: CD19 23 scFv (P12) (scFv)
scFv: DIQMTQSPSSLSASVGDRVTITCRASQSIYSYLNWYQQKRGKAPKLLIYDASSLQSGVPSRFSGSGSGTDFTLTISSLQPEDFATYYCQQSYTAPPTFGQGTKVEIKGGGGSGGGGSGGGGSEVQLLESGGGLVQPGGSLRLSCAASGFTFSNYAMSWVRQAPGKGLEWVSAISESGHGTYYADSVKGRFTISRDNSKNTLYLQMNSLRAEDTAVYYCARLDWAGFDVWGQGTLVTVSS
notes: also called 53; clone 53

binding result [3]: binds
B8: CD19 10 scFv (P6) (scFv)
scFv: DIQMTQSPSSLSASVGDRVTITCRASQTISRYLNWYQQKPGKAPKLLIYAASSLQSGVPSRFSGSGSGTDFTLTISSLQPEDFATYYCQQSYRPPLTFGQGTKVEIKGGGGSGGGGSGGGGSEVQLLESGGGLVQPGGSLRLSCAASGFTFSSYAMSWVRQAPGKGLEWVSTISAGGHGTYYADSVKGRFTISRDNSKNTLYLQMNSLRAEDTAVYYCARGAGYFDYWGQGTLVTVSS
notes: also called 47; clone 47

binding result [3]: binds
B10: CD19 11 scFv (P7) (scFv)
scFv: DIQMTQSPSSLSASVGDRVTITCRASQSISSYLNWYQQKPGKAPKLLIYAASSLQSGVPSRFSGSGSGTDFTLTISSLQPEDFATYYCQQTGAVPYTFGQGTKVEIKGGGGSGGGGSGGGGSEVQLLESGGGLVQPGGSLRLSCAASGFTFRDYAMSWVRQAPGKGLEWVSAISESGIDTYYADSVKGRFTISRDNSKNTLYLQMNSLRAEDTAVYYCARVAGYDSDSSTYYDYMDVWGQGTLVTVSS
notes: also called 48; clone 48

Second part, the molecule before the results:

B1: CD19 7 scFv (P5) (scFv)
scFv: DIQMTQSPSSLSASVGDRVTITCRASQSISKYLNWYQQKPGKAPKLLIYDASSLQSGVPSRFSGSGSGTDFTLTISSLQPEDFATYYCQQSYTIPLTFGQGTKVEIKGGGGSGGGGSGGGGSQVQLVQSGAEVKKPGSSVKVSCKASGGTFSSYAFSWVRQAPGQGLEWMGGIVPLFGAVEYAQKFQGRVTITADESTSTAYMELSSLRSEDTAVYYCAREKGFYRYFDHWGQGTLVTVSS
notes: also called 46; clone 46
binding result [3]: binds

B2: CD19 14 scFv (P8) (scFv)
scFv: DIQMTQSPSSLSASVGDRVTITCRASQSISNYLNWYQQKPGKAPKLLIYAASSLQSGVPSRFSGSGSGTDFTLTISSLQPEDFATYYCQQAYSAPITFGQGTKVEIKGGGGSGGGGSGGGGSEVQLLESGGGLVQPGGSLRLSCAASGFTFGDYAMSWVRQAPGKGLEWVSAISRGGHGTYYADSVKGRFTISRDNSKNTLYLQMNSLRAEDTAVYYCARLVGYGLDYWGQGTLVTVSS
notes: also called 49; clone 49
binding result [3]: binds

B3: CD19 CAR comprising CD19 binder 45 (anti-CD19 scFv-BBz CAR) on T cells (other)
chain: DIQMTQSPSSLSASVGDRVTITCRASQDITRYLNWYQQKPGKAPKLLIYAASSLQSGVPSRFSGSGSGTDFTLTISSLQPEDFATYYCQQSYSYPPTFGQGTKVEIKGGGGSGGGGSGGGGSQVQLVESGGGVVQPGRSLRLSCAASGFTFRDYGMHWVRQAPGKGLEWVAVISYEGSNEYYADSVKGRFTISRDNSKNTLYLQMNSLRAEDTAVYYCARDRGFAGWYDYAFDPWGQGTLVTVSSTTTPAPRPPTPAPTIASQPLSLRPEACRPAAGGAVHTRGLDFACDIYIWAPLAGTCGVLLLSLVITLYCKRGRKKLLYIFKQPFMRPVQTTQEEDGCSCRFPEEEEGGCELRVKFSRSADAPAYKQGQNQLYNELNLGRREEYDVLDKRRGRDPEMGGKPRRKNPQEGLYNELQKDKMAEAYSEIGMKGERRRGKGHDGLYQGLSTATKDTYDALHMQALPPR
notes: also called CD19-45 CAR; 45 original
Gated for CD19-CAR-FITC expression [4]: 9.64 mfi
Gated for CD19-CAR-FITC expression [5]: 4.76 mfi
IL-2 & TNF-α, intracellular cytokine staining, Nalm6 stimulation, ND608 CAR T cells day 9 [6]: 28.1%
IL-2, intracellular cytokine staining, Nalm6 stimulation, ND608 CAR T cells day 9 [6]: 1.16%
TNF-α, intracellular cytokine staining, Nalm6 stimulation, ND608 CAR T cells day 9 [6]: 25.2%
Gated for CD19 CAR Expression [7]: 17.7 mfi
Gated for CD19-CAR expression [8]: 23.1 mfi

B4: CD19 18 scFv (P11) (scFv)
scFv: QSVLTQPPSVSGAPGQRVTISCTGSSSNIGAGYDVHWYQQLPGTAPKLLIYGTKNRPSGVPDRFSGSKSGTSASLAITGLQAEDEADYYCQSYDVRLKGWVFGGGTKLTVLGGGGSGGGGSGGGGSQLQLQESGPGLVKPSETLSLTCTVSGGSITSSSYYWGWIRQPPGKGLEWIGSIYYTGTTYYNPSLKSRVTISVDTSKNQFSLKLSSVTAADTAVYYCARYVGLSGGFDYWGQGTLVTVSS
notes: also called 52; clone 52
binding result [3]: binds

B9: CD19 CAR comprising CD19 binder 52 (anti-CD19 scFv-BBz CAR) on T cells (other)
chain: QSVLTQPPSVSGAPGQRVTISCTGSSSNIGAGYDVHWYQQLPGTAPKLLIYGTKNRPSGVPDRFSGSKSGTSASLAITGLQAEDEADYYCQSYDVRLKGWVFGGGTKLTVLGGGGSGGGGSGGGGSQLQLQESGPGLVKPSETLSLTCTVSGGSITSSSYYWGWIRQPPGKGLEWIGSIYYTGTTYYNPSLKSRVTISVDTSKNQFSLKLSSVTAADTAVYYCARYVGLSGGFDYWGQGTLVTVSSTTTPAPRPPTPAPTIASQPLSLRPEACRPAAGGAVHTRGLDFACDIYIWAPLAGTCGVLLLSLVITLYCKRGRKKLLYIFKQPFMRPVQTTQEEDGCSCRFPEEEEGGCELRVKFSRSADAPAYKQGQNQLYNELNLGRREEYDVLDKRRGRDPEMGGKPRRKNPQEGLYNELQKDKMAEAYSEIGMKGERRRGKGHDGLYQGLSTATKDTYDALHMQALPPR
notes: also called CD19-52 CAR
Gated for CD19-CAR-FITC expression [4]: 14.5 mfi
Gated for CD19-CAR-FITC expression [5]: 5.56 mfi
IL-2 & TNF-α, intracellular cytokine staining, Nalm6 stimulation, ND608 CAR T cells day 9 [6]: 37%
IL-2, intracellular cytokine staining, Nalm6 stimulation, ND608 CAR T cells day 9 [6]: 1.06%
TNF-α, intracellular cytokine staining, Nalm6 stimulation, ND608 CAR T cells day 9 [6]: 36.1%
Gated for CD19 CAR Expression [7]: 20.1 mfi
Gated for CD19-CAR expression [8]: 30.4 mfi

From patent US20240123068A1 (KITE PHARMA, published 2024)
